Like-named read-outs stand apart in the source and are kept apart here. Bounds are passed on as bounds.

Test [1] deals with T1, full-length human FGFR1c on HEK293/hFGFR1c/SRE-luc cells (human, UniProt P11362 22-822).
T1 construct: amino acids 1-733 of NP_075593
Nature of the test: FACS on stable HEK293 cells, 33 nM. Here is the method:
(§1) For the FACS analysis, HEK293 parental, HEK293/hFGFR1c, HEK293/hFGFR1c/hKLB, and HEK293/mFGFR1c/mKLB cells were dissociated and plated onto 96-well v-bottom plates at 0.5×10⁶ cells/well in 2% FBS/PBS. […] Control mAb2 was tested at a concentration of 965 nM. After primary protein incubation cells were washed and incubated with 3.75 μg/mL fluorescently conjugated secondary antibodies for 30 minutes at 4° C. Cells were filtered and analyzed on Accuri™ 6 Flow Cytometer. Unstained and secondary antibody alone controls were also tested for all cell lines. The results were analyzed using FlowJo version 9.52 software and geometric mean (Geom. Mean) of fluorescence for viable cells were determined. Geom. mean of fluorescence for each antibody was then normalized to Geom. mean of unstained cells to obtain relative binding of antibody (binding ratios) per each cell type.

Test [2] deals with T2, human KLB and human FGFR1c co-expressed on HEK293/hKLB/hFGFR1c/SRE-luc cells (human, UniProt Q86Z14 1-1044; P11362 22-822).
T2 construct: two receptors co-expressed on one cell line; also called KLB/FGFR1c coreceptor; FGF21R
Nature of the test: FACS on stable HEK293 cells, 33 nM. Here is the method:
as §1

Test [3] deals with T3, cell-surface human FGFR1c (amino acids 1-731 of NP_075594) with cell-surface human KLB on … (human, UniProt P11362 22-822). The test is described as follows: cell-based or functional assay.
Test [4] addresses T4, extracellular domain of human KLB expressed with C-terminal HA and hexahistidine tags (human, UniProt Q86Z14 1-996).
T4 construct: also called hKLB-HA-6His; hKLB-HA-6his
T4 sequence: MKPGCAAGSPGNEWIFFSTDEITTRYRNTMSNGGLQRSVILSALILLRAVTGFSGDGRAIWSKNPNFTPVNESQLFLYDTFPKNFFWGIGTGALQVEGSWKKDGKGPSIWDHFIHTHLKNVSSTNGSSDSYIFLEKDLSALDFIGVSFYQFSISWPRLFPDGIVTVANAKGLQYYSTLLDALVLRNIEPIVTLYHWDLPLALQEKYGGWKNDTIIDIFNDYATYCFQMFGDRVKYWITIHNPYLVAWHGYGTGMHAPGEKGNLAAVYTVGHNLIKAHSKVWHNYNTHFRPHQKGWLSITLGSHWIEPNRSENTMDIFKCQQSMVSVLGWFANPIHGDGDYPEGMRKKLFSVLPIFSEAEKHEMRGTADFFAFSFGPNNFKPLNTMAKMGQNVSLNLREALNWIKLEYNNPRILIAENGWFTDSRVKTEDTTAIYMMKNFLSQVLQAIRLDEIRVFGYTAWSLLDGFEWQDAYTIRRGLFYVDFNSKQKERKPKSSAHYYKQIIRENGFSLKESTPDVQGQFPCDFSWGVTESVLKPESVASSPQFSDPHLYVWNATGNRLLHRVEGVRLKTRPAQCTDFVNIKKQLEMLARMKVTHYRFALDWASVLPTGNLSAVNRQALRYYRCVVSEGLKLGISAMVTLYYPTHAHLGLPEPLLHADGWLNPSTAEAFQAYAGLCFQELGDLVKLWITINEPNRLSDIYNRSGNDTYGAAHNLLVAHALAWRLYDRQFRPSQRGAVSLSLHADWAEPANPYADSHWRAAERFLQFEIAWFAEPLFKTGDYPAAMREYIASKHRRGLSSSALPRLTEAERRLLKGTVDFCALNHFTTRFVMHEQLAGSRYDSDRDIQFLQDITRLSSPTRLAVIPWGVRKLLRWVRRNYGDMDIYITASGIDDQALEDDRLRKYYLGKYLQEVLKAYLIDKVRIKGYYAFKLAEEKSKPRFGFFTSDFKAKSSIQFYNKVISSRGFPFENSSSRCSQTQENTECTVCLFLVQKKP
Nature of the test: SPR, mAb captured, 25 C. Summed up: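 Biacore T-200/4000; mAb captured via anti-mouse or anti-human Fc. HBST running buffer (0.01M HEPES pH 7.4). Sensorgrams fit 1:1 for ka, kd; KD, t½ calculated from rate constants.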
Background: SPR reads the build-up and loss of mass on a sensor chip optically.

The target in test [5] is T2, human KLB and human FGFR1c co-expressed …. Nature of the test: cell-based or functional assay.
Test [6] concerns the target T3, cell-surface human FGFR1c (amino acids …). Nature of the test: cell-based or functional assay. This is another data set of the same source.
For test [7], the target named is T2, human KLB and human FGFR1c co-expressed …. The test is described as follows: cell-based or functional assay. The source holds these as a separate data set.

T1 sequence (P11362 other isoform, or with tags, fused parts or gaps limits assumed): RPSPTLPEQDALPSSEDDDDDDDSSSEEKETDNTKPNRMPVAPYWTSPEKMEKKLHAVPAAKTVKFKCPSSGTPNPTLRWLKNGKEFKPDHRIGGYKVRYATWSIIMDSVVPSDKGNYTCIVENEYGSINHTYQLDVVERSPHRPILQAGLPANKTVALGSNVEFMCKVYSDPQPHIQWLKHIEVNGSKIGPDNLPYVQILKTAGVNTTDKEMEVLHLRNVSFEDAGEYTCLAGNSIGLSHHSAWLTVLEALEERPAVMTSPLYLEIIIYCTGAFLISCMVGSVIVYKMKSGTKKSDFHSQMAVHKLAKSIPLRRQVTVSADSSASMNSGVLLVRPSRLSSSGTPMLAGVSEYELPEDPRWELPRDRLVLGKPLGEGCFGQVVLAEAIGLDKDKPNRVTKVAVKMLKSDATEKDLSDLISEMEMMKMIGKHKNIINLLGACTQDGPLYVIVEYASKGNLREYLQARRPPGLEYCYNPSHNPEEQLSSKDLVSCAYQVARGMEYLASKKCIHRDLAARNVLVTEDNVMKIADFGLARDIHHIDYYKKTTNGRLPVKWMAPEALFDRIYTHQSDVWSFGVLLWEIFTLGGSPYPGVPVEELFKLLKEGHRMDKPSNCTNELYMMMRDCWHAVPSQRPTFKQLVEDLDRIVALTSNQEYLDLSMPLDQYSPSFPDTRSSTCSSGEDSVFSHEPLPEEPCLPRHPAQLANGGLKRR

B1: H1H8900P (antibody, V domains shown)
VH: QVQLVESGGGVVQPGRSLRLSCVASGFTFSSYGMHWVRQAPGKGLEWVAVISFDGSNKYYADSVKGRFTISRDNSKNTLYLQMNSLRPADTAVYYCAKDRSNYYYFGMDVWGQGTTVTVSS
VL: DIVMTQTPLSLPVTPGEPASISCRSSQSLLDSDDGNTYLDWYLQKPGQSPQLLIYTLSYRASGVPDRFSGSGSGTDFTLKISRVEAEDVGVYYCMQRIEFPLTFGGGTKVEIK
notes: H1H Fc prefix (human Fc)
As to B1, the “MFI Ratio to unstained cells” value in test [1] came to 2 fold. Moreover, in test [2], the “MFI Ratio to unstained cells” value came to 2 fold. In addition, in test [3], the “% Activation” value amounted to 1.4% and the “EC50, SRE-luc activation” value was over 10 nM. In addition, in test [4], the “20 nM hKLB-HA-6His Bind (RU)” value stood at 0.3 RU and the binding result is “no binding (tested: 60 nM)”. Besides, in test [5], the “IC50, inhibition of 1 nM 6His-hFGF21” value was 2.2 nM and the “Maximum Inhibition (%)” value stood at 36%. Moreover, in test [6], the “% Activation” value came out at 0.7% and the “EC50, SRE-luc activation” value stood at 47 nM. For the same molecule, in test [7], the “EC50, SRE-luc activation without ligand” value was 17 nM and the “Maximum Activation (%) without ligand” value came to 2%.

These data come from patent publication US20170174769A1 (Regeneron, published 2017).
